Laboratory results as given in patent US20260191907A1 (INSTITUT CURIE, published 2026).
Each block holds one binder with its values, some of them ahead of it.

Assays:
[1] = target: T1, FGFR4 expressed on the surface of RMS cells (Rh4-FR4 wt, Rh30) (human, UniProt P22455 22-802); assay: flow cytometry, recombinant nanobody at 30 µg/ml on Rh4-FR4 wt cells, anti-6xHis-FITC detection
T1 construct: Endogenous FGFR4 of the rhabdomyosarcoma cell lines; The whole entry includes the signal peptide; also called cell-surface FGFR4; Rh4-FR4 wt cells
Procedure: (§1) Control cells (C) were either not stimulated or stimulated with FGF19 in absence of the nanobodies. The cell lysates were analysed by western blot with anti phospho ERK1/2 antibody. Total Erk1/2 levels are shown as loading control.
(§2) Binding validation of selected phages, recombinant nanobodies and decorated liposomes was performed on Rh4-FR4 wt and Rh4-FR4ko cells. Specificity of selected phage clones binding to FGFR4 was determined by flow cytometry in 96-well plates (Becton Dickinson). Cell surface staining of Rh4-FR4 wt or Rh4-FR4ko cells was performed on ice in PBS supplemented with 1% FBS. 80 μL phages+20 μL PBS/1% milk were incubated on 1×10⁵ cells for 1 h on ice. […] Samples were analyzed after two washes by flow cytometry on a MACSQuant® cytometer (Miltenyi) and results were analyzed with FlowJo™ software (BD Biosciences, France). Phages displaying anti-mCherry nanobodies were used as negative control²⁴ and as positive control we used an anti-FGFR4 antibody (BT53, kindly provided by J. Khan lab, NCI, Bethesda, MD). For binding test of recombinant nanobodies, cells were detached with Accutase® (Stemcell Technologies) and washed with PBS. All following steps were performed on ice: 4×10⁵ cells were incubated with nanobody concentrations of 30 μg/ml for 1 h, washed once with PBS and incubated for an additional 30 min with anti His-tag FITC labeled antibody (LS-C57341, LSBioscience, diluted 1:10). The cells were washed once more with PBS and analyzed. Targeting liposomes were added at 0.5 mM final lipid concentration to cells in 96-well plates and incubated for 2 h at 37° C. and 5% CO₂. The cells were washed twice with PBS and detached with Accutase®.
Validation of the binding of recombinant nanobodies to cell-surface expressed FGFR4 was performed with Rh4-FR4 wt and Rh4-FR4ko cells by flow cytometry. A FITC-labeled anti-6×His-tag antibody was used to detect surface-bound nanobodies.

[2] = target: T2, FGFR1 expressed on Rh4-FR4ko cells (UniProt P11362 22-822, limits assumed); assay: flow cytometry on Rh4-FR4ko cells, which express FGFR1 and FGFR2
T2 construct: whole, on cells; also called FGFR1 on Rh4 cells
Procedure: as §1, with “The cells were incubated for 1 h with nanobodies at 10 μM (A8, B1, B5, F8, mCh) followed by stimulation of FGFR4 with 50 nM FGF19 for 10 min. Control” for “Control”
as §2
(§3) Validation of the binding of recombinant nanobodies to cell-surface expressed FGFR4 was performed with Rh4-FR4 wt and Rh4-FR4ko cells by flow cytometry.

[3] = target: T3, FGFR2 expressed on Rh4-FR4ko cells (UniProt P21802 22-821, limits assumed); assay: as above
T3 construct: whole, on cells; also called FGFR2 on Rh4 cells
Procedure: as §1, with “The cells were incubated for 1 h with nanobodies at 10 μM (A8, B1, B5, F8, mCh) followed by stimulation of FGFR4 with 50 nM FGF19 for 10 min. Control” for “Control”
as §2, §3

[4] = target: T4, Recombinant FGFR1 (G&P Biosciences) (UniProt P11362 22-376, limits assumed); assay: SPR, FGFR1 immobilised, nanobody as analyte at five concentrations
T4 construct: Immobilised on the SPR chip
T4 sequence (looked up): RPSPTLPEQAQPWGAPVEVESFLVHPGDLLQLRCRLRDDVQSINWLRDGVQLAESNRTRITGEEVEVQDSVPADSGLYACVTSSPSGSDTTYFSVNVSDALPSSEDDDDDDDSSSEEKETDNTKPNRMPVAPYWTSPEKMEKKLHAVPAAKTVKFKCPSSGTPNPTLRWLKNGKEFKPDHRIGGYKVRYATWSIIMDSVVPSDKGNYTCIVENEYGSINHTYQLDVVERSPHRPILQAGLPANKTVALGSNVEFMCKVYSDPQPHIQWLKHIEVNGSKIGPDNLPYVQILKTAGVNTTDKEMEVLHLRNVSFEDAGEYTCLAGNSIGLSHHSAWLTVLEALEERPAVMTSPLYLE
Procedure: Single cycle kinetics analysis was performed with the BIAcore® T200 instrument (GE Healthcare) on CMD200M sensor chips (XanTec bioanalytics GmbH) activated with a mixture of 300 mM NHS (N-hydroxysuccinimide) and 50 mM EDC (N-ethyl-N′-(dimethylaminopropyl) carbodiimide). Recombinant FGFR1, FGFR2, FGFR3 and FGFR4 (G&P Biosciences) were immobilized on the activated biosensors (800 to 12′000 RU; 1 RU=1 pg/mm²) followed by a blocking step with 1M ethanolamine. One flow channel per chip was used as a reference to provide background corrections. The nanobodies were injected at 5 different concentrations followed by a dissociation phase. Koff-rates were determined from a final dissociation step after the last injection. The measurements with FGFR4 were performed for each nanobody on freshly immobilized protein due to strong binding and incomplete dissociation from the surface. Immobilization flow rate was 5 μl/min and binding studies were performed at 30 μl/min. Binding parameters were determined with the heterogeneous ligand model fit of the BIAevaluation software. The black curves represent the measured data and red curves show the performed fit analysis.
To determine the binding affinity of the nanobodies to FGFR4, we performed surface plasmon resonance (SPR) spectroscopy with recombinant FGFR4. As already mentioned above, FGFR1 and FGFR2 are expressed on Rh4-FR4ko cells and flow cytometry analysis indicated no binding of the nanobodies to the cells. To further confirm FGFR4-specificity, we included also affinity measurements with recombinant FGFR1, FGFR2 and FGFR3. Nanobodies A8, B1, B5, F8, and mCh were injected in five different concentrations on a FGFR coated chip. Except for the negative control mCh, calculated KD values for FGFR4 binding were in the nano- and picomolar range (FIG. 3; Table 2). Affinity parameters could not be fitted with a 1:1 binding model and best fits were obtained with the heterogeneous ligand model of the BIAevaluation software resulting in two KD values for each candidate.

T3 sequence (P21802 22-821 limits assumed): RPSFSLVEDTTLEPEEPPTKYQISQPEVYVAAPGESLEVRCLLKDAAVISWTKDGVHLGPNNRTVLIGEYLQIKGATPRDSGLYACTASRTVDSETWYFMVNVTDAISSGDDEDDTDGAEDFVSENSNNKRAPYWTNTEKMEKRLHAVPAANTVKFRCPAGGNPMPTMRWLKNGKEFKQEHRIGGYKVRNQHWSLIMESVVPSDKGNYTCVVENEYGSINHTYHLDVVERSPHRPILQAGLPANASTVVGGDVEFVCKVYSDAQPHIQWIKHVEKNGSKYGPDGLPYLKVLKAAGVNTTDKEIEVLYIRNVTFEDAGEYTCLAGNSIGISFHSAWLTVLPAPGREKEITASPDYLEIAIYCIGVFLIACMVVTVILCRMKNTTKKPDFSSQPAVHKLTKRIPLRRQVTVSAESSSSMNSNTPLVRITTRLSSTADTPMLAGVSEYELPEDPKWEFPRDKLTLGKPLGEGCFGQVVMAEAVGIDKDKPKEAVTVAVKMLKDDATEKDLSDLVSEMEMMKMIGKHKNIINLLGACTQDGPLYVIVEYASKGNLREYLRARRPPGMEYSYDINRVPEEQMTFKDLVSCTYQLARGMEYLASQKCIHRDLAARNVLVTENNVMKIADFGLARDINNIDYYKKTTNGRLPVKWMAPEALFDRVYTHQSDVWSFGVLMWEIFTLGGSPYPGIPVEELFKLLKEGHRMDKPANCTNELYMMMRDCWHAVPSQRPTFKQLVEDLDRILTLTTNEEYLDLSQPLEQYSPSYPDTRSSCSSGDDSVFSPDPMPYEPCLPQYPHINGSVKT

median fluorescence intensity (MFI) [1]: ~400 MFI
binding result [2]: no binding (tested: 30 µg/ml)
binding result [3]: no binding (tested: 30 µg/ml)
binding result [4]: no binding
B1: B1 nanobody (anti-FGFR4 sdAb, NaLi-H1 library) (VHH)
VHH: EVQLQASGGGFVQPGGSLRLSCAASGYTSRSSAMGWFRQAPGKEREFVSAISDLTGYPYYYADSVKGRFTISRDNSKNTVYLQMNSLRAEDTATYYCAAYQDDKWTYGSQHGKYWGQGTQVTVSS
notes: also called B1 sdAb; not shown: C-terminal Myc/6xHis-tag and an additional cysteine

median fluorescence intensity (MFI) [1]: ~400 MFI
binding result [2]: no binding (tested: 30 µg/ml)
binding result [4]: no binding
B2: A8 nanobody (anti-FGFR4 sdAb, NaLi-H1 library) (VHH)
VHH: EVQLQASGGGFVQPGGSLRLSCAASGRTYSRDTMGWFRQAPGKEREFVSAISSRHSHTTYYADSVKGRFTISRDNSKNTVYLQMNSLRAEDTATYYCAEWDVFDMHYALPPMWYWGQGTQVTVSS
notes: also called A8 sdAb; not shown: C-terminal Myc/6xHis-tag and an additional cysteine

median fluorescence intensity (MFI) [1]: ~400 MFI
binding result [2]: no binding (tested: 30 µg/ml)
binding result [3]: no binding (tested: 30 µg/ml)
binding result [4]: no binding
B3: F8 nanobody (anti-FGFR4 sdAb, Gimli library) (VHH)
VHH: EVQLVESGGGLVQPGGSLRLSCAASGTGYALDDMGWVRQAPGKGLEWVSAISDDESMADYYADSVKGRFTISRDNSKNTVYLQMNSLRAEDTAVYYCASYKEYKYQSGHHYFAYRGQGTLVTVSS
notes: Recombinant nanobody of about 17 kDa; also called F8 sdAb; not shown: C-terminal Myc/6xHis-tag and an additional cysteine

median fluorescence intensity (MFI) [1]: ~400 MFI
binding result [2]: no binding (tested: 30 µg/ml)
binding result [4]: no binding
B4: B5 nanobody (anti-FGFR4 sdAb, NaLi-H1 library) (VHH)
VHH: EVQLQASGGGFVQPGGSLRLSCAASGRTSWLTTMGWFRQAPGKEREFVSAISSFSSKQGYYADSVKGRFTISRDNSKNTVYLQMNSLRAEDTATYYCAYASYPRHQGNGRWKDFVEYWGQGTQVTVSS
notes: Recombinant nanobody of about 17 kDa; also called B5 sdAb; not shown: C-terminal Myc/6xHis-tag and an additional cysteine
